For test [1], the target named is T1, β2-AR-mCerulean (human, UniProt P07550 1-413).
T1 construct: human β2-adrenergic receptor, cDNA from Open Biosystems; Constructed 'in a similar manner' to the SPASM sensors; m1 stands for it there; also called β2-mCer; β2-mCerulean; source: HEK293T, transiently transfected, native membranes
Description: pull-down; binding step of the binding-and-release assay: 30 μM biotinylated Gα peptide and 100 μM isoproterenol mixed 5 min with native membranes (10 nM β2-mCer) in 20 mM HEPES, 100 mM NaCl, 45 mM KCl, 5 mM MgCl2, pH 7.4; complex depleted with streptavidin-coated magnetic beads; unbound receptor from mCer fluorescence of the supernatant; KD estimated from a single point. The settings on record: one partner purified.

Test [2] addresses T1, β2-AR-mCerulean. Description: cell-based or functional assay.

Where no end group is shown, it is not given here. The star is where a group is joined. Biotin = O=C1N[C@H]2[C@H](CS[C@H]2CCCCC(=O)*)N1

Results on three molecules are retold here after PMC6811539, “Minute-scale persistence of a GPCR conformation state triggered by non-cognate G protein interactions primes signaling” (Nature Communications, 2019).

B1: biotinylated Qp (peptide)
peptide: Biotin-DTENIRFVFAAVKDTILQLNLKEYNLV
notes: Gαq C-terminal α5 peptide (Qp), last 27 residues of Gαq; also called bioQp; bioQP; source: synthetic peptide (GenScript); not shown: biotin, N-terminal, kept
For B1, the Kd in test [1] is over 200 µM.
Take DTENIRFVFAAVKDTILQLNLKEYNLV [Qp (Gαq C terminus peptide)]: the “activation of endogenous Gs (BODIPY-FL-GTPγS) after fenoterol in native membranes with β2-AR-mCherry, with 30 μM Qp against no peptide” value in test [2] was about 7 fold.
As for Biotin-DTENIRRVFNDCRDIIQRMHLRQYELL [biotinylated Sp], the Kd in test [1] was about 30 µM.

Usually Kd stands for the free concentration of one partner at which half of the binding sites on the other are occupied at equilibrium, for simple one-to-one binding.
